Experiment [1] concerns the target T1, IFNAR1, endogenous in A375 melanoma cells (human, UniProt P17181 28-557, poly-LacNAc glycosylation added by B3GNT2 (sites not given)).
T1 construct: whole, on cells; In the co-IP it comes from the lysate of A375 cells; also called IFNARI
T1 sequence (looked up): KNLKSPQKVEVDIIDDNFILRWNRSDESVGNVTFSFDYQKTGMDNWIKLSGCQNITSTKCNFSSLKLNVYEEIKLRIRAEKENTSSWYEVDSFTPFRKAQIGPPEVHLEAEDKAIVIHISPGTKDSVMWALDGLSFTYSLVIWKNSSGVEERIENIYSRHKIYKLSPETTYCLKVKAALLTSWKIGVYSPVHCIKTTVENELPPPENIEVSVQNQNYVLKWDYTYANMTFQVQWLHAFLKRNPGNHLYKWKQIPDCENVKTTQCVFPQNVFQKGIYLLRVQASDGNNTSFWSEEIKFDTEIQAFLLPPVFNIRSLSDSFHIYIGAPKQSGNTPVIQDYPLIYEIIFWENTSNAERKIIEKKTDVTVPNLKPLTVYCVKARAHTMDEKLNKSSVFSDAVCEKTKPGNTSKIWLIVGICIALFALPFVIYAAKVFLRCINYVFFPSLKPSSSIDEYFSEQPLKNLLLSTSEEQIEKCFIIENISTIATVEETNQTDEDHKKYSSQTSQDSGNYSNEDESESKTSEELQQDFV
The experiment is described as follows: co-IP of FLAG tagged B3GNT2 from A375 lysate, Western blot. As for the experimental part: (§1) Cells were plated in 10-cm cell culture dishes and grown to 60-80% confluency. For each condition, two biological replicates were harvested for co-IP. Cells were washed with PBS and 4 mL of lysis buffer (20 mM HEPES, 1% Triton X-100, 150 mM NaCl, 1 mM EDTA, and 10% glycerol) containing protease inhibitor cocktail was added. Cells were scraped and lysate was incubated at 4° C. under rotary agitation for 1 h. Lysate was centrifuged at 14,000×g for 10 min at 4° C. Supernatant was transferred to a new tube and an aliquot was taken as the input. […] For Western blots, 10 μg/mL Chicken Anti-FLAG (Aves labs ET-DY100) and IgY control (R&D Systems AB-101-C) antibodies were biotinylated (Thermo Fisher Scientific 90407) and added to the respective conditions. Lysates with antibodies were incubated at 4° C. under rotary agitation overnight. For each mL of lysate, 50 μL of Pierce Protein A/G Magnetic Beads (Mass spectrometry; Thermo Fisher Scientific 88803) or Pierce Streptavidin Magnetic Beads (Western blot; Thermo Fisher Scientific 88817) was washed twice with lysis buffer. Lysates with antibodies were added to the beads and incubated at 4° C. under rotary agitation for 4 h. Beads were washed with lysis buffer 3 times and resuspended in lysis buffer for storage.

Experiment [2] deals with T2, CD276, endogenous in A375 melanoma cells (human, UniProt Q5ZPR3 29-534, poly-LacNAc glycosylation added by B3GNT2 (sites not given)).
T2 construct: whole, on cells; On fixed A375 cells in flow cytometry; In the co-IP it comes from the lysate of these cells; also called B7H3
T2 sequence (looked up): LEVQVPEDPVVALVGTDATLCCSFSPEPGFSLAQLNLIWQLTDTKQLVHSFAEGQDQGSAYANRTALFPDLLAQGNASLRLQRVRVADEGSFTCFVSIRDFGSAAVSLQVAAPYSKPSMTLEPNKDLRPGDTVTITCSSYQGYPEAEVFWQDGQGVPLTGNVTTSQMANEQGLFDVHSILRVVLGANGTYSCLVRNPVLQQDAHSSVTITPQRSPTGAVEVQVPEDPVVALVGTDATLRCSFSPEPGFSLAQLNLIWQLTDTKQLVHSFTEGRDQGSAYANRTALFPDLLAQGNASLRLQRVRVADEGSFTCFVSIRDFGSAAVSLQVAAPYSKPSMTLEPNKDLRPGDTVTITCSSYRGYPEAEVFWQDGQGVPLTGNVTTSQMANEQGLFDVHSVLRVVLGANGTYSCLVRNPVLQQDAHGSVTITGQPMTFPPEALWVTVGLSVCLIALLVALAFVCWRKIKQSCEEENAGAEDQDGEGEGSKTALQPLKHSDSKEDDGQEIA
The description is as above. As for the experimental part: as §1

The target of experiment [3] is T3, TNFRSF1A, endogenous in A375 melanoma cells (human, UniProt P19438 30-455, poly-LacNAc glycosylation added by B3GNT2 (sites not given)).
T3 construct: whole, on cells; In the co-IP it comes from the lysate of A375 cells
T3 sequence (looked up): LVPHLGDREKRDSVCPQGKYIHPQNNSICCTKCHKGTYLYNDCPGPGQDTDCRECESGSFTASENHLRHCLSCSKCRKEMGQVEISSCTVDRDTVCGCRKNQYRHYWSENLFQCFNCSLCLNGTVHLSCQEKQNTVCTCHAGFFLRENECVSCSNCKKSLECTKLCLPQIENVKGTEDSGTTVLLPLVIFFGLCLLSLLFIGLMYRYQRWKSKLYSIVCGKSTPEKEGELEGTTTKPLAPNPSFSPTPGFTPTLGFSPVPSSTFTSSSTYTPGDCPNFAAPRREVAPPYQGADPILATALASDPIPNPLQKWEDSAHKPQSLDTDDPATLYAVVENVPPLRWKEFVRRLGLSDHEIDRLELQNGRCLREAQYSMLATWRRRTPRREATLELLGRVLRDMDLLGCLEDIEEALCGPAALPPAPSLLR
Described as above. As for the experimental part: as §1

Another experiment concerns the target T4, MARS (human, UniProt P56192 1-900).
T4 construct: also called NP_004981.2
T4 sequence (looked up): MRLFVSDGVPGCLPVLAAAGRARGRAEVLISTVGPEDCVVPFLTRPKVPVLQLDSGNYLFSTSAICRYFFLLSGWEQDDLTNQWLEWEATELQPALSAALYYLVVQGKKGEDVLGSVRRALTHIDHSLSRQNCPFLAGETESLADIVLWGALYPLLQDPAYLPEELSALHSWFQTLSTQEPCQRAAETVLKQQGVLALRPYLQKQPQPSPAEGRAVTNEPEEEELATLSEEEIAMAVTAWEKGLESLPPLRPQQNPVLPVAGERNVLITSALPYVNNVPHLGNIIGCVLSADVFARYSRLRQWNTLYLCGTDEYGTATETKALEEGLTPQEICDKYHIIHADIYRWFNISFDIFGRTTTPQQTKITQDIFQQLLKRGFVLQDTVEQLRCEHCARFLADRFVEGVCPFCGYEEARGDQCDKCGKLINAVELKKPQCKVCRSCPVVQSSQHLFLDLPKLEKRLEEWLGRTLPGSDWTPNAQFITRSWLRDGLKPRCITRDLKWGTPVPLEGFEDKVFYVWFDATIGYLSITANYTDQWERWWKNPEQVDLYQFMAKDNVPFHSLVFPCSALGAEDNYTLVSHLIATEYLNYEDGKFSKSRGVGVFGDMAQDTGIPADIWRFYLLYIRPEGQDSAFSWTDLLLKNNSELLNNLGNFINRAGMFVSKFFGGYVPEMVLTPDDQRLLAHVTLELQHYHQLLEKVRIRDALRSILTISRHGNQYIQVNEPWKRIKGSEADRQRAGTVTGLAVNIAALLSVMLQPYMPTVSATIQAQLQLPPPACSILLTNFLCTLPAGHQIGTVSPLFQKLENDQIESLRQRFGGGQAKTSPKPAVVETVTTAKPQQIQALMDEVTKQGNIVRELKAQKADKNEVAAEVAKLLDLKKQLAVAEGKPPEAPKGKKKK
The experiment is described as follows: co-IP with anti-FLAG, mass spectrometry; lysate of cells with C-FLAG B3GNT2. As for the experimental part: as §1
(§2) Magnetic beads were resuspended in 100 mM Tris pH 7.8, reduced, alkylated and digested with trypsin at 37° ° C. overnight. This solution was subjected to solid phase extraction to concentrate the peptides and remove unwanted reagents followed by injection onto a Shimadzu HPLC with fraction collector. Eight fractions were collected and after concentration were injected on a Waters NanoAcquity HPLC equipped with a self-packed Aeris 3 μm C18 analytical column 0.075 mm by 20 cm, (Phenomenex). Peptides were eluted using standard reverse-phase gradients. The effluent from the column was analyzed using a Thermo Orbitrap Elite mass spectrometer (nanospray configuration) operated in a data dependent manner for 54 minutes. […]

Another experiment deals with T5, CD70 (human, UniProt P32970 1-193).
T5 construct: also called NP_001243.1
T5 sequence (looked up): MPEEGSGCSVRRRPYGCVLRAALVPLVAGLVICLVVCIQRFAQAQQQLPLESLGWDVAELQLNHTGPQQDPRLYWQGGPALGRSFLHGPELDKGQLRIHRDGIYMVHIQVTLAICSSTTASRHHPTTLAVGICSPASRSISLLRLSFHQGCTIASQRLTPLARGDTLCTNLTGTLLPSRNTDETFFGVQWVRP
The experiment is described as above. As for the experimental part:
as §1, §2

The next experiment has as its target T6, PSMD4 (human, UniProt P55036 1-377, limits assumed).
T6 construct: also called NP_001317621.1 (+1)
Described as above. As for the experimental part:
as §1, §2

T6 sequence (P55036 whole entry): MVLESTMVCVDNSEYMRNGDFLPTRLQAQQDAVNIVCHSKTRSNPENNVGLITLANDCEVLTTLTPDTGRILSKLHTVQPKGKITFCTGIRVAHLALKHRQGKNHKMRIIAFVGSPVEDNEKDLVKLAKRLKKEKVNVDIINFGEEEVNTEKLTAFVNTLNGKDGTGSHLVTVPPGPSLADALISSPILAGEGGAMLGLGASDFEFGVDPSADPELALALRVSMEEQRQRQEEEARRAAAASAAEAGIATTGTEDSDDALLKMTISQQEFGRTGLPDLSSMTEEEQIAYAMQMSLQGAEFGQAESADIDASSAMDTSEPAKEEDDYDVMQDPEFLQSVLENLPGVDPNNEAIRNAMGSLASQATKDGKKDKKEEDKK

B1: FLAG tagged B3GNT2 (N- or C-terminal FLAG tag) (enzyme, human, UniProt Q9NY97 1-397, looked up)
chain: MSVGRRRIKLLGILMMANVFIYFIMEVSKSSSQEKNGKGEVIIPKEKFWKISTPPEAYWNREQEKLNRQYNPILSMLTNQTGEAGRLSNISHLNYCEPDLRVTSVVTGFNNLPDRFKDFLLYLRCRNYSLLIDQPDKCAKKPFLLLAIKSLTPHFARRQAIRESWGQESNAGNQTVVRVFLLGQTPPEDNHPDLSDMLKFESEKHQDILMWNYRDTFFNLSLKEVLFLRWVSTSCPDTEFVFKGDDDVFVNTHHILNYLNSLSKTKAKDLFIGDVIHNAGPHRDKKLKYYIPEVVYSGLYPPYAGGGGFLYSGHLALRLYHITDQVHLYPIDDVYTGMCLQKLGLVPEKHKGFRTFDIEEKNKNNICSYVDLMLVHSRKPQEMIDIWSQLQSAHLKC
notes: The text speaks of the co-IP of B3GNT2 without separating the N-FLAG and C-FLAG constructs, so both are held as one molecule; also called N-FLAG B3GNT2; C-FLAG B3GNT2; not shown: FLAG tag at the N- or the C-terminus
Turning to B1, the binding result in experiment [1], in experiment [2] and in experiment [3] was “binds” throughout.

B2: C-terminal FLAG tagged B3GNT2 (enzyme, human, UniProt Q9NY97 1-397, looked up)
chain: MSVGRRRIKLLGILMMANVFIYFIMEVSKSSSQEKNGKGEVIIPKEKFWKISTPPEAYWNREQEKLNRQYNPILSMLTNQTGEAGRLSNISHLNYCEPDLRVTSVVTGFNNLPDRFKDFLLYLRCRNYSLLIDQPDKCAKKPFLLLAIKSLTPHFARRQAIRESWGQESNAGNQTVVRVFLLGQTPPEDNHPDLSDMLKFESEKHQDILMWNYRDTFFNLSLKEVLFLRWVSTSCPDTEFVFKGDDDVFVNTHHILNYLNSLSKTKAKDLFIGDVIHNAGPHRDKKLKYYIPEVVYSGLYPPYAGGGGFLYSGHLALRLYHITDQVHLYPIDDVYTGMCLQKLGLVPEKHKGFRTFDIEEKNKNNICSYVDLMLVHSRKPQEMIDIWSQLQSAHLKC
notes: Bait of the co-IP; pulled down with mouse anti-FLAG (Millipore Sigma F3165) from cell lysate; also called C-FLAG B3GNT2; C-term flag; not shown: C-terminal FLAG tag
In the case of B2, the figures for the “co-IP mass spectrometry count” value with MARS, with CD70 and with PSMD4 were 0, 2 and 0, respectively.

For the origin of these results see patent US20240261333A1 (published 2024).
